Measured values: patent US20230322857A1, “RECOMBINANTLY ENGINEERED POLYPEPTIDES CAPABLE OF RECYCLING NONCANONICAL COFACTORS” (The Regents of the University of California, priority 2022, published 2023)

Assays:
Format in all cases: biochemical
[1] = Steady-state kinetics of TS-PTDH variants with NADP^+; conditions: 100 mM MOPS, pH 7.25, 10 mM sodium phosphite, varied cofactor concentrations; n = 3
Description: (§1) Purification and Characterization of TS-PTDH Variants. The E. coli BL21(DE3) strains harboring pQElac plasmids encoding the TS-PTDH or TS-PTDH variants were grown in 2×YT media with kanamycin and ampicillin at 37° C. The IPTG-inducible expression, Ni-affinity purification, and protein concentration determination was conducted as described above.
(§2) The steady-state kinetic parameters toward the coenzymes were measured by spiking purified protein into a 100 μL reaction mixture containing 100 mM MOPS, pH 7.25, 10 mM sodium Pt, and varied cofactor concentrations from 0.02 mM to 5 mM at 25° C. The kinetic parameters were measured by monitoring the […] of reduced coenzyme at 340 nm. Data were fitted to the Michaelis-Menten equation to generate estimates of KM and kcat values.

[2] = Steady-state kinetics of TS-PTDH variants with NAD^+; conditions: 100 mM MOPS, pH 7.25, 10 mM sodium phosphite, varied cofactor concentrations; n = 3
Description: as §1, §2

[3] = Steady-state kinetics of TS-PTDH variants with NMN^+
Description: as §1, §2

[4] = 100 mM MOPS, pH 7.25, 10 mM sodium phosphite, varied cofactor concentrations, n = 3

B1: LY-6: phosphite dehydrogenase variant with A155N, E175Q, A176S (SEQ ID NO:4) (protein)
chain: MLPKLVITHRVHEEILQLLAPHCELITNQTDSTLTREEILRRCRDAQAMMAFMPDRVDADFLQACPELRVIGCALKGFDNFDVDACTARGVWLTFVPDLLTVPTAELAIGLAVGLGRHLRAADAFVRSGKFRGWQPRFYGTGLDNATVGFLGMGNIGLAMADRLQGWGATLQYHQSKALDTQTEQRLGLRQVACSELFASSDFILLALPLNADTLHLVNAELLALVRPGALLVNPCRGSVVDEAAVLAALERGQLGGYAADVFEMEDWARADRPQQIDPALLAHPNTLFTPHIGSAVRAVRLEIERCAAQNILQALAGERPINAVNRLPKANPAAD
[1]
  Km: 50 ± 10 µM
  NADP^+ kcat: 0.95 ± 0.05 s⁻¹
[2]
  Km: 110 ± 10 µM
  NAD^+ kcat: 1.04 ± 0.08 s⁻¹
[3]; [4]
  Km: 1.1 ± 0.1 mM
  NMN^+ kcat: 0.18 ± 0.01 s⁻¹
[3]; vs parent enzyme TS-PTDH A155N
  increased catalytic efficiency (kcat/Km) for NMN^+ compared to TS-PTDH A155N: ~17 fold
